Data as given in patent US20100173352A1.

Biological target: human CD47/IAP receptor on HUCB-EPC (human) (UniProt Q08722)
Test: cell-based or functional assay

B1: mouse monoclonal anti-human CD47 IgG1 (clone B6H12) (antibody, from another filing, V domains shown)
VH: EVQLVESGGDLVKPGGSLKLSCAASGFTFSGYGMSWVRQTPDKRLEWVATITSGGTYTYYPDSVKGRFTISRDNAKNTLYLQIDSLKSEDTAIYFCARSLAGNAMDYWGQGTSVTVSS
VL: DIVMTQSPATLSVTPGDRVSLSCRASQTISDYLHWYQQKSHESPRLLIKFASQSISGIPSRFSGSGSGSDFTLSINSVEPEDVGVYYCQNGHGFPRTFGGGTKLEIK
  HUCB-EPC adhesion onto gelatin-vitronectin after pre-treatment with 40 µg/ml, compared with BSA: 14.6%
  HUCB-EPC adhesion onto gelatin-vitronectin after pre-treatment with 40 µg/ml, compared with control mouse IgG1: 16.6%
